Test results reported in patent publication US20180267027A1, “FLUORESCENT BIOSENSOR FOR […] ASSAY” (The Regents of the University of California, priority 2015, published 2018).

T1: protein lysine MTase SET7/9 (Homo sapiens, UniProt Q8WTS6)
T1 construct: purchased New England Biolabs Inc (Ipswich, Mass.)
T1 sequence (Q8WTS6 1-366): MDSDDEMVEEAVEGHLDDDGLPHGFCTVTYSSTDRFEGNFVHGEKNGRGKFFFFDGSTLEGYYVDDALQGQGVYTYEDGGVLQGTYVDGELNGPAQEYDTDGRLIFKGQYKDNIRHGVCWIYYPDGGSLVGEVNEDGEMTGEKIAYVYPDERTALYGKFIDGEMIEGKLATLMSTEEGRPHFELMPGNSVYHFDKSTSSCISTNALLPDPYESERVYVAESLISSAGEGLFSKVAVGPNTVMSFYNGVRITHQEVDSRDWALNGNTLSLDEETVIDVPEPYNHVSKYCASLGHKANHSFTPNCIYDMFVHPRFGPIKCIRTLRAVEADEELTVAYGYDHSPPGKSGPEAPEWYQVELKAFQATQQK

T2: SET7/9 (Homo sapiens, UniProt Q8WTS6)
T2 construct: purchased New England Biolabs Inc (Ipswich, Mass.)
T2 sequence (Q8WTS6 1-366): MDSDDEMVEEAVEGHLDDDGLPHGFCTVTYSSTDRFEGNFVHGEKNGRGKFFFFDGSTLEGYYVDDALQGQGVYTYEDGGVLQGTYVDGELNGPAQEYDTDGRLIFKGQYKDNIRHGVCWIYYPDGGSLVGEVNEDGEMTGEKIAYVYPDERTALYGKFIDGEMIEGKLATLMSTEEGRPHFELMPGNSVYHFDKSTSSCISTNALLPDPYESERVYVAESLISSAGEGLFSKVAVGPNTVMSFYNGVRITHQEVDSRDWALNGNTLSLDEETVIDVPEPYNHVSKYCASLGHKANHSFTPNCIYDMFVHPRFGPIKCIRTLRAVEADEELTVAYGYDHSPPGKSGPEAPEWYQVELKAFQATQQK


How the values were obtained:
[1] = In vitro fluorescence assays of SAH biosensors (turn-on, ligand selectivity); type: biochemical
Procedure: Other conditions, including temperature, concentrations of MgCl2, DFHBI, ligand or RNA, were varied in different experiments and are indicated in the figures. The RNA was renatured in buffer at 70° C. for 3 min and cooled to ambient temperature for 5 min prior to addition to the reaction solution. DFHBI was added to a solution containing buffer and ligand, and then RNA was added at the end before fluorescence measurement. Binding reactions were performed in 100 μL volumes and were incubated at the indicated temperature in a Corning Costar 3915 96-well black plate until equilibrium was reached, which in some cases takes 30 to 60 minutes. The fluorescence emission was measured using a Molecular Devices SpectraMax Paradigm Multi-Mode detection platform plate reader (Sunnyvale, Calif.) with the following instrument parameters: 448 nm excitation, 506 nm emission.

[2] = target: T1, protein lysine MTase SET7/9; assay: Protein MTase SET7/9 activity assay with SAH biosensor; type: biochemical
Procedure: To initiate the enzyme reaction, 5 μL of H3 peptide substrate (N′-[…]-LAGGKKC-C′) (SEQ ID NO:132) was added to 5 μL of 2×enzyme reaction solution containing SET7/9, SAM, and NEB HMT buffer. Generally, final concentrations are 50 μM H3 peptide, 0.1 U/μL SET7/9, 25 μM SAM, and lx NEB HMT buffer (50 mM Tris, pH 9.0, 5 mM MgCl2, and 4 mM DTT). The reaction solution was incubated at 37° C. for 2 hours to allow the enzyme reaction to proceed.
To initiate the fluorescent biosensor reaction, 10 μL of the enzyme reaction was added to 90 μL of biosensor reaction solution containing renatured RNA, DFHBI, and buffer. […] For the SAH control, SAH was added to a final concentration of 0.5 μM in place of the enzyme reaction. In vitro fluorescence assays were conducted as described above.

SET7/9 = target: T2, SET7/9; assay: High-throughput screening (HTS) assay of SET7/9 activity and inhibition, Z′ score; type: biochemical; settings: 384-well plate, 16 replicates
Procedure: For HTS experiments, samples were dispensed into a Grenier 781077 384-well flat bottom black plate using an Eppendorf Repeater […] pipetter to dispense reaction components. Z' scores were calculated from 16 well replicates in the 384-well plate. For the HTS SET7/9 activity assay, 3 μL of H3 peptide or water was added to 9 μL of reaction solution containing SET7/9 MTase, SAM, and NEB HMT Reaction Buffer in each well. Final concentrations are: 0.25 U/10 μL SET7/9, 25 μM SAM, 50 μM H3 peptide and 1×NEB HMT Reaction Buffer (50 mM Tris, pH 9.0, 5 mM MgCl2, and 4 mM DTT). After 30 min incubation at 37° C., to initiate the fluorescent biosensor reaction, 18 μL of biosensor reaction solution containing renatured RNA, DFHBI, and buffer was added to each well. […] In vitro fluorescence assays were conducted as described above. For the HTS SET7/9 inhibition assay, 4.5 μL of sinefungin or water was added to 8 μL of reaction solution containing SET7/9 MTase, and NEB HMT Reaction Buffer in each well. After 15 minutes incubation at 37° C., methylation reaction was initiated by adding 2.5 μL solution containing both SAM and H3 peptide. Final concentrations are: 0.25 U/10 μL SET7/9, 25 μM SAM, 50 μM H3 peptide, 300 μM sinefungin and 1×NEB HMT Reaction Buffer (50 mM Tris, pH 9.0, 5 mM MgCl2, and 4 mM DTT). After 30 min incubation at 37° C., to initiate the fluorescent biosensor reaction, 15 μL of biosensor reaction solution containing renatured RNA, DFHBI, and buffer was added to each well. […] In vitro fluorescence assays were conducted as described above.

E. coli BL21* cells = assay: In vivo fluorescence of RNA aptamers by flow cytometry; type: cell-based; settings: 100 μM DFHBI
Procedure: To compare the fluorescence of Spinach2 and cpSpinach2 in live cells, pET31b plasmids encoding the RNA aptamers in a tRNA scaffold were transformed into E. coli BL21* cells. Following IPTG induction of transcription, cells were incubated with DFHBI and fluorescence was quantitated by flow cytometry. The mean cellular fluorescence was measured as a function of increasing DFHBI concentration in the media, in order to determine the optimal conditions for aptamer fluorescence. Unexpectedly, full saturation of fluorescence was not observed, even when E. coli cells were incubated in media containing up to 800 μM DFHBI (FIG. 5). However, the non-specific fluorescence signal increased when DFHBI concentration exceeded 100 μM. Thus, to balance higher fluorescence activation and lower non-specific background, a concentration of 100 μM was adopted for further experiments. Under these conditions, cellular fluorescence activation for Spinach2 and cpSpinach2 was on average 34 and 22-fold over background, respectively (FIG. 6). Thus, cpSpinach2 is a functional alternative to Spinach2. Although it currently performs slightly poorer in terms of fluorescence activation in live cells, improvements are likely possible through directed mutagenesis for higher thermal stability, improved folding efficiency and less Mg^2+ dependency. […]

[3] = system: E. coli BL21* wild-type and ΔMTAN cells; assay: Live cell detection of SAH accumulation, wild-type versus MTAN knockout, flow cytometry; type: cell-based
Procedure: A Targetron® Gene Knockout System (Sigma-Aldrich) was used to knock out the MTAN gene from E. coli BL21*, following manufacturer protocols.
Preparation of cell samples for flow cytometry was carried out by inoculating 2 mL of auto-induction media/Carb (F. Studier, Protein Expression and Purification 2005, 41, 207-234) with E. coli BL21* cells from colonies grown on an LB/Carb culture plate, containing pET31b plasmids encoding RNA aptamers. […] Cells were then grown aerobically overnight to saturation (0D600 varied from 5 to 10) and diluted to OD600˜0.01-0.05 in M9 minimal media (pH ˜6.0) with 100 μM DFHBI-1T. Cellular fluorescence was measured for 30,000 cells using a Life Technologies Attune N×T Acoustic Focusing Cytometer.

E. coli cells = assay: RNA stability in E. coli, cpSpinach2 fluorescence in M9 minimal media; type: cell-based; settings: M9 minimal media without inducers, monitored for 4 h
Procedure: Fluorescence of cpSpinach2-expressing E. coli cells grown 16 hrs in auto-induction media, then pelleted and re-suspended in M9 minimal media without RNA transcription inducers.
RNA stability in E. coli: For the time-course experiment shown in FIG. 4D, E. coli cells from overnight culture (16 h post-inoculation and induction) were pelleted and re-suspended in M9 minimal media without transcriptional inducers (lactose). To analyze the stability of RNA levels under these conditions, E. coli cells expressing cpSpinach2 were processed using the same procedures and fluorescence was monitored for 4 h. Fluorescence readings remained stable for up to 3 h in M9 minimal media. Therefore, we expect that the related biosensor levels would be stable in the same time-frame, so the fluorescence change shown in FIG. 4D reflects the dynamic change in SAH levels.

Molecule | fluorescence response to SAH at low magnesium ([1]; 3 mM magnesium) | fluorescence turn-on ([1]; 37° C., 10 mM Mg^2+) | change of fluorescence turn-on with increasing magnesium ([1]; magnesium from 1 to 20 mM) | fluorescence response to SET7/9 activity [2] | Z′ score, substrate screen (SET7/9) | Z′ score, inhibitor screen (SET7/9; 300 μM sinefungin) | cellular fluorescence activation over background (E. coli BL21* cells) | fold change in fluorescence between wild-type and MTAN knockout strain 2 ([3]; E. coli BL21* MTAN knockout strain 2) | fluorescence signal in ΔMTAN versus wild-type cells ([3]; E. coli BL21*, flow cytometry) | time fluorescence readings remained stable (E. coli cells)
Aeh1-4: SAH biosensor, SEQ ID NO: 44 (nucleic acid) CGCCCCGAGGAGCGCTGCAACAGGTTGTTGAGTAGAGTGTGAGCTCCGTAACTAGTTACATCGCAAGATGTAACTGAATGAAATGGTGAAGGACGGGTCCACCTGCCAGGCTCGGGGATGGCGCCCCATCGTTCCAACGGCGCTCAGCGAAA | decreased fluorescence turn-on | around 5 fold | marked improvement in fluorescence turn-on | displayed a fluorescence response to SET7/9 activity | 0.74 | 0.44 |  |  |  | 
cpSpinach2: circular permutant of the Spinach2 aptamer, SEQ ID NO: 93 (nucleic acid, expressed or natural sequence) GCAGCCTACTTGTTGAGTAGAGTGTGAGCTCCGTAACTAGTTACATCGCAAGATGTAACTGAATGAAATGGTGAAGGACGGGTCCAGTAGGCTGC |  |  |  |  |  |  | 22 fold | 1.4 × | no significant difference in signal | up to 3 h
